Where two headings read alike, the source gives them in different places.

What all share (experiment): ITC
For assay [1], the target named is βI14-15 E1708A.
Assay [2] addresses βI14-15 E1784A.
In assay [3] the target is βI14-15 E1703A.
Assay [4] concerns the target βI14-15 E1710A.
Assay [5] has as its target wild type βI-spectrin 14-15 di-repeat.
In assay [6] the target is βI14-15 D1701A.
The target in assay [7] is βI14-15 A1867P.
The target of assay [8] is βI14-15 D1781A.
Assay [9] has as its target βI14-15 Y1866A.
Assay [10] concerns the target βI14-15 T1788A.
Assay [11] has as its target βI14-15 D1700A.
Assay [12] deals with βI14-15 T1788A. This is another data set of the same source.

B1: ZU5 domain of ankyrin (domain or fragment)
chain: FLVSFMVDARGGSMRGSRHNGLRVVIPPRTCAAPTRITCRLVKPQKLSTPPPLAEEEGLASRIIALGPTGAQFLSPVIVEIPHFASHGRGDRELVVLRSENGSVWKEHRSRYGESYLDQILNGMDEELGSLEELEKKRVCRIITTDFPLYFVIMSR
Broadly, the Kd is the equilibrium constant for the complex coming apart. Low readings indicate higher affinity, high ones lower affinity. Take B1: the Kd in assay [1] was 430 nM; in assay [2], 43400 nM; in assay [3], 320 nM; in assay [4] it was 1700 nM; in assay [5], 190 nM; in [6], 360 nM. Also, the dissociation constant Kd in [7] is 14900 nM; in assay [8], 2100 nM; in assay [9], 22000 nM; in [10], 5730 nM; in [11] it was 440 nM; in assay [12] it was 5800 nM.

Source of the values: article PMC2839365 (Biochemical and biophysical research communications, 2010).
